{"source": "patent US20110262525A1", "about": "“METHODS OF TREATMENT” (SCHERING CORPORATION, priority 2006, published 2011)", "molecules": {"B1": {"name": "LCF/HCA: fully human anti-IGF1R antibody comprising the mature 19D12/15H12 light chain F (LCF) and mature heavy chain A (HCA) (antibody, V domains shown)", "VH": "EVQLVQSGGGLVHPGGSLRLSCAASGFTFSSFAMHWVRQAPGKGLEWISVIDTRGATYYADSVKGRFTISRDNAKNSLYLQMNSLRAEDMAVYYCARLGNFYYGMDVWGQGTTVTVSS", "VL": "EIVLTQVPDFQSVTPKEKVTITCRASQSIGSSLHWYQQKPDQSPKLLIKYASQSLSGVPSRFSGSGSGTDFTLTINSLEAEDAAAYYCHQSSRLPHTFGGGTKVEIKRT"}}, "key": {"[1]": {"system": "EW5 xenograft (Ewings)", "assay": "PPTP in vivo xenograft EW5", "design": "key to EFS activity notation (high, intermediate, indeterminate): high (!); intermediate (#); indeterminate (^)", "method": "(§1) The PPTP includes a molecularly characterized in vitro panel of cell lines (n=27) and in vivo panel of xenografts (n=61) representing most of the common types of childhood solid tumors and childhood ALL (acute lymphoblastic leukemia). LCF/HCA anti-IGF1R antibody was tested against the PPTP in vitro panel at concentrations ranging from 0.01 nM to 100 nM; and was tested against the PPTP in vivo panel at a dose of 0.5 mg per mouse administered twice weekly for four weeks via intraperitoneal injection. Three measures of antitumor activity were used: 1) response criteria modeled after the clinical setting; 2) treated-to-control (T/C) tumor volume at day 21; and 3) a time to event (4-fold increase in tumor volume) measure based on the median EFS of treated and control lines (intermediate activity required EFS (event-free survival) T/C>2, and high activity additionally required a net reduction in median tumor volume at the end of the experiment).\n(§2) Stage 1 testing involved testing an agent across the entire PPTP panel of childhood cancer xenograft lines at its maximum tolerated dose (MTD) or at a dose selected based on PK/PD (pharmacokinetic/pharmacodynamic) studies using adult preclinical models.\n(§3) In vivo solid tumor testing: For each xenograft line, 10 mice bearing subcutaneous (SC) tumors initiated treatment when the tumors were between 0.2-0.5 cm^3 in volume. Two perpendicular tumor diameters were measured at once weekly intervals with digital vernier calipers. Assuming tumors to be spherical, volumes were calculated from the formula (π/6)×d3, where d represented the mean diameter.\n(§4) Drug: LCF/HCA was dissolved in 20mM sodium acetate pH 5 buffer containing 150 mM sodium chloride, and administered intraperitoneally twice weekly for 4 consecutive weeks at a dose of 0.5 mg per animal. The antibody was provided to each testing site in coded vials for blinded testing according the PPTP's standard operating procedures.\n(§5) Median Group Response: Each individual mouse in each treatment group was assigned a response score (see Tables above) and a median score for the treatment group was calculated and then each treatment group was assigned an overall response according to the table below.\n(§6) Statistical Methods: Event-free survival (EFS) distributions of each treatment group were compared to the EFS distribution of the respective control group using the exact log rank test. P-values were 2-sided & were not adjusted for multiple comparisons given the exploratory nature of this study. P-values<0.05 were considered to be significant."}, "[2]": {"system": "NB-1691 xenograft (Neuroblastoma)", "assay": "PPTP in vivo xenograft NB-1691", "conditions": "NB-1691 (Neuroblastoma) xenograft, 0.5 mg per mouse ip twice weekly for four weeks", "method": "as §1, §2, §3\n(§7) Drug: LCF/HCA was dissolved in 20mM sodium acetate pH 5 buffer containing 150 mM sodium chloride, and administered intraperitoneally twice weekly for 4 consecutive weeks at a dose of 0.5 mg per animal. […]\n(§8) Median Group Response: Each individual mouse in each treatment group was assigned a response score (see Tables above) and a median score for the treatment group was calculated and then each treatment group was assigned an overall response according to the table below. […]"}, "[3]": {"system": "OS-33 xenograft (Osteosarcoma)", "assay": "PPTP in vivo xenograft OS-33", "conditions": "OS-33 (Osteosarcoma) xenograft, 0.5 mg per mouse ip twice weekly for four weeks", "text": "The PPTP includes a molecularly characterized in vitro panel of cell lines (n=27) and in vivo panel of xenografts (n=61) representing most of the common types of childhood solid tumors and childhood ALL (acute lymphoblastic leukemia).\nas §2, §3\nThe antibody was provided to each testing site in coded vials for blinded testing according the PPTP's standard operating procedures.\nas §5, §6"}, "[4]": {"system": "EW8 xenograft (Ewings)", "assay": "PPTP in vivo xenograft EW8", "method": "as §1, §2, §3, §7, §8"}, "[5]": {"system": "squamous cell carcinoma cell line SCC 15", "assay": "Cell-Titer Glo proliferation assay, SCC15", "format": "cell-based, human", "conditions": "0.000256-100 nM antibody, 96 hours", "method": "(§9) Cell proliferation was assayed using a Cell-Titer Glo assay (Promega Corp.; Madison, Wis.). A cell-titer glo assay generates a “glow” luminescent signal in the presence of ATP from viable cells, which can be detected with a plate reader luminometer or CCD imaging device.\n(§10) In this assay, squamous cell carcinoma cells, SCC9, SCC25 and SCC15, were trypsinized, counted and resuspended at 25,000 cells/ml in 10% HI-FBS RPMI containing NEAA, L-Glu, MEM Vitamins and PS. […] (2500 cells) were added to each well BD Falcon 96 well black, clear bottom TC treated plate. Cells were allowed to attach and spread overnight at 37° C. Then, 10% RPMI medium was replaced with […] 2% RPMI, containing the LCF/HCA antibody at the appropriate concentration, the following day. The anti-IGF1R antibody concentrations used in each experiment were 100 nM, 20 nM, 5 nM, 0.8 nM, 0.16 nM, 0.032 nM, 0.0064 nM, 0.00128 nM, and 0.000256 nM. All treatments were prepared in 2% RPMI at 20× concentration and serial diluted. Every test point was prepared in triplicate on separate assay plates. As mentioned above, cell proliferation was measured using the CellTiter-Glo Luminescent Cell Viability Assay (Promega) at 96 hours post treatment. Luminescence was detected on a Wallac 420 Plate Reader with stacker."}, "[6]": {"system": "ALL-17 xenograft (ALL B-precursor)", "assay": "PPTP in vivo leukemia xenograft ALL-17", "design": "key to EFS activity notation (high, intermediate, indeterminate): high (!); intermediate (#); indeterminate (^)", "conditions": "ALL-17 (ALL B-precursor) xenograft; 0.5 mg per mouse ip twice weekly for four weeks", "method": "as §1, §2\n(§11) In vivo acute lymphoblastic leukemia testing: For each xenograft line, 8 mice were inoculated with 3-5×10^6 mononuclear cells purified from the spleens of secondary recipient mice. Engraftment was monitored weekly by flow cytometry, and treatment was initiated when the proportion of human CD45+ cells in the peripheral blood reached 1%. The proportion of human CD45+ cells in the peripheral blood was monitored weekly throughout the course of treatment.\nas §4, §5, §6"}, "[7]": {"system": "OS-31 xenograft (Osteosarcoma)", "assay": "PPTP in vivo xenograft OS-31", "conditions": "OS-31 (Osteosarcoma) xenograft, 0.5 mg per mouse ip twice weekly for four weeks", "method": "as §1, §2, §3, §7, §8"}, "[8]": {"system": "squamous cell carcinoma cell line SCC 25", "assay": "Cell-Titer Glo proliferation assay, SCC25", "format": "cell-based", "conditions": "0.000256-100 nM antibody, 96 hours", "method": "as §9, §10"}, "[9]": {"system": "OS-2 xenograft (Osteosarcoma)", "assay": "PPTP in vivo xenograft OS-2", "design": "key to EFS activity notation (high, intermediate, indeterminate): high (!); intermediate (#); indeterminate (^)", "conditions": "OS-2 (Osteosarcoma) xenograft, 0.5 mg per mouse ip twice weekly for four weeks", "method": "as §1, §2, §3, §4, §5, §6"}, "[10]": {"system": "ALL-8 xenograft (ALL T-cell)", "assay": "PPTP in vivo leukemia xenograft ALL-8", "conditions": "ALL-8 (ALL T-cell) xenograft; 0.5 mg per mouse ip twice weekly for four weeks", "method": "The PPTP includes a molecularly characterized in vitro panel of cell lines (n=27) and in vivo panel of xenografts (n=61) representing most of the common types of childhood solid tumors and childhood ALL (acute lymphoblastic leukemia). LCF/HCA anti-IGF1R antibody was tested against the PPTP in vitro panel at concentrations ranging from 0.01 nM to 100 nM; and was tested against the PPTP in vivo panel at a dose of 0.5 mg per mouse administered twice weekly for four weeks via intraperitoneal injection. […]\nas §11, with “treatment. […]” for “treatment.”\nas §8"}, "[11]": {"conditions": "0.5 mg per mouse ip twice weekly for four weeks"}, "[12]": {"conditions": "day 21, 0.5 mg per mouse ip twice weekly for four weeks"}}, "note": "Marks after values point to notes of the source that are not given here.", "data": [{"molecule": "B1", "values": [{"measurement": "EFS T/C", "setting": "[1]; [11]", "result": "> 2.3"}, {"measurement": "EFS activity notation (high, intermediate, indeterminate)", "setting": "[1]; [11]", "result": "!"}, {"measurement": "Median Final RTV", "setting": "[1]; [11]", "result": "0.4!"}, {"measurement": "Overall Group Response", "setting": "[1]; [11]", "result": "CR* (7 < MS ≦ 9)"}, {"measurement": "Tumor Volume T/C", "setting": "[1]; [12]", "result": 0.12}, {"measurement": "EFS T/C", "setting": "[2]", "result": 0.9}, {"measurement": "Median Final RTV", "setting": "[2]", "result": ">4"}, {"measurement": "Tumor Volume T/C", "setting": "[2]; day 21", "result": 1.34}, {"measurement": "EFS T/C", "setting": "[3]", "result": 0.9}, {"measurement": "Median Final RTV", "setting": "[3]", "result": ">4"}, {"measurement": "Tumor Volume T/C", "setting": "[3]; day 21", "result": 0.79}, {"measurement": "EFS T/C", "setting": "[4]; [11]", "result": 1.5}, {"measurement": "Median Final RTV", "setting": "[4]; [11]", "result": ">4"}, {"measurement": "Tumor Volume T/C", "setting": "[4]; [12]", "result": 0.86}, {"measurement": "proliferation of squamous cell carcinoma cell line", "setting": "[5]", "result": "inhibited"}, {"measurement": "EFS T/C", "setting": "[6]", "result": 3.1}, {"measurement": "EFS activity notation (high, intermediate, indeterminate)", "setting": "[6]", "result": "#"}, {"measurement": "Median Final RTV", "setting": "[6]", "result": ">25#"}, {"measurement": "Overall Group Response", "setting": "[6]", "result": "PD2 (1 < MS ≦ 3)"}, {"measurement": "EFS T/C", "setting": "[7]", "result": 1.3}, {"measurement": "Median Final RTV", "setting": "[7]", "result": ">4"}, {"measurement": "Tumor Volume T/C", "setting": "[7]; day 21", "result": 0.88}, {"measurement": "proliferation of squamous cell carcinoma cell line", "setting": "[8]", "result": "inhibited"}, {"measurement": "EFS T/C", "setting": "[9]", "result": 2.3}, {"measurement": "EFS activity notation (high, intermediate, indeterminate)", "setting": "[9]", "result": "#"}, {"measurement": "Median Final RTV", "setting": "[9]", "result": ">4#"}, {"measurement": "Overall Group Response", "setting": "[9]", "result": "PD2 (1 < MS ≦ 3)"}, {"measurement": "Tumor Volume T/C", "setting": "[9]; day 21", "result": 0.5}, {"measurement": "EFS T/C", "setting": "[10]", "result": 1.5}, {"measurement": "Median Final RTV", "setting": "[10]", "result": ">25"}]}]}
